B1: VHH505 (VHH)
VHH: QLQLVESGGGLVQAGGSLRLSCAASRSITFSHNVMGWYRQAPGKQRELVASIGSGGSTNYVDSVKGRATISRDNAKKTVYLQMNSLKPEDTAVYYCGVVVGVYRGSLGQGTQVTVSS
notes: also called VHH505_beta
B2: DGL175 (bispecific antibody)
heavy 1: QLQLVESGGGLVQAGGSLRLSCAASRSITFSHNVMGWYRQAPGKQRELVASIGSGGSTNYVDSVKGRATISRDNAKKTVYLQMNSLKPEDTAVYYCGVVVGVYRGSLGQGTQVTVSSGGGSQVQLQESGGGLVQAGGSLRLSCQASGSIATINGMRWWRQAPGKERELVATINSGGSSNYADSVKGRFTISRDNASHTVSLQMNSLKPEDTAVYYCNLYVYSQFPPFSVDDYWGQGARVTVSSDKTHTCPPCPAPEAAGGPSVFLFPPKPKDTLMISRTPEVTCVVVDVSHEDPEVKFNWYVDGVEVHNAKTKPREEQYNSTYRVVSVLTVLHQDWLNGKEYKCKVSNKALPAPIEKTISKAKGQPREPQVCTLPPSRDELTKNQVSLSCAVKGFYPSDIAVEWESNGQPENNYKTTPPVLDSDGSFFLVSKLTVDKSRWQQGNVFSCSVMHEALHNHYTQKSLSLSPG
heavy 2: not shown
B3: DGL012 (bispecific antibody, human IgG1, kappa, L234A L235A)
heavy 1: EVQLVESGGGLVQAGGSLRLSCAASGRTFSDARMGWFRQAPGRERELIAFISWFGSNTNYGSSVKGRFTISRDNTKNTVYLQMNSLKLEDTAVYYCAACRQSICIDSAEYFDDWGQGTQVTVSSDKTHTCPPCPAPEAAGGPSVFLFPPKPKDTLMISRTPEVTCVVVDVSHEDPEVKFNWYVDGVEVHNAKTKPREEQYNSTYRVVSVLTVLHQDWLNGKEYKCKVSNKALPAPIEKTISKAKGQPREPQVCTLPPSRDELTKNQVSLSCAVKGFYPSDIAVEWESNGQPENNYKTTPPVLDSDGSFFLVSKLTVDKSRWQQGNVFSCSVMHEALHNHYTQKSLSLSPG
heavy 2: not shown
light: DIQMTQSPSSLSASVGDRVTITCQASESIDNWLAWYQQKPGQAPKLLIYSASNLASGVPSRFSGSGSGTDFTLTISSLQPEDFATYYCQSTFYGVNPVPNAFGQGTKVVIKRTVAAPSVFIFPPSDEQLKSGTASVVCLLNNFYPREAKVQWKVDNALQSGNSQESVTEQDSKDSTYSLSSTLTLSKADYEKHKVYACEVTHQGLSSPVTKSFNRGEC
B4: DGL174 (bispecific antibody)
heavy 1: EVQLVESGGGLVQAGGSLRLSCAASGSISSRDTMGWYRQAPGKQREMVAVISSSGNTNYADSVLGRFTISRDNAKNTVDLQMNSLKPEDTAIYKCYAHRTYGVDYWGKGTLVTVSSGGGSQVQLVESGGGLVQAGGSLRLSCAASGRTFSSYTMGWFRQAPGKEREFVAAISWSAGRTYYADSVKGRFTISRDNAKNTVYLQMNSLKPEDTAVYFCAAEEAPDWAPIDCSGYGCLSLYDYWGQGTQVTVSSDKTHTCPPCPAPEAAGGPSVFLFPPKPKDTLMISRTPEVTCVVVDVSHEDPEVKFNWYVDGVEVHNAKTKPREEQYNSTYRVVSVLTVLHQDWLNGKEYKCKVSNKALPAPIEKTISKAKGQPREPQVCTLPPSRDELTKNQVSLSCAVKGFYPSDIAVEWESNGQPENNYKTTPPVLDSDGSFFLVSKLTVDKSRWQQGNVFSCSVMHEALHNHYTQKSLSLSPG
heavy 2: not shown
B5: DGL172 (bispecific antibody)
heavy 1: QLQLVESGGGLVQAGGSLRLSCAASRSITFSHNVMGWYRQAPGKQRELVASIGSGGSTNYVDSVKGRATISRDNAKKTVYLQMNSLKPEDTAVYYCGVVVGVYRGSLGQGTQVTVSSDKGPSVFPLAPEPKSSQVQLQESGGGLVQAGGSLRLSCQASGSIATINGMRWWRQAPGKERELVATINSGGSSNYADSVKGRFTISRDNASHTVSLQMNSLKPEDTAVYYCNLYVYSQFPPFSVDDYWGQGARVTVSSDKTHTCPPCPAPEAAGGPSVFLFPPKPKDTLMISRTPEVTCVVVDVSHEDPEVKFNWYVDGVEVHNAKTKPREEQYNSTYRVVSVLTVLHQDWLNGKEYKCKVSNKALPAPIEKTISKAKGQPREPQVCTLPPSRDELTKNQVSLSCAVKGFYPSDIAVEWESNGQPENNYKTTPPVLDSDGSFFLVSKLTVDKSRWQQGNVFSCSVMHEALHNHYTQKSLSLSPG
heavy 2: not shown
B6: VHH363 (VHH)
VHH: QVQLVESGGGLVQAGGSLRLSCAASGRTFSSYTMGWFRQAPGKEREFVAAISWSAGRTYYADSVKGRFTISRDNAKNTVYLQMNSLKPEDTAVYFCAAEEAPDWAPIDCSGYGCLSLYDYWGQGTQVTVSS
notes: also called VHH363_alpha
B7: DGL173 (bispecific antibody)
heavy 1: QVQLVESGGGLVQAGGSLRLSCVASGTFFQIHVMGWYRQAPGKQRELVAFIINNGGTRYADSVKGRFTISRDYAKNTVYLQMNSLKPEDTAVYYCNTEGTYRGRYSTDNWGQGTQVTVSSGGGSQVQLVESGGGLVQAGGSLRLSCAASGRTFSKHAMGWFRQAPGKEREFVAAIDWSGGSTYYADSVKGRFTISRDNAKNTVYLQMDSLKPEDTAVYYCAADSYTDYAQLWLPELESEYDYWGQGTQVTVSSDKTHTCPPCPAPEAAGGPSVFLFPPKPKDTLMISRTPEVTCVVVDVSHEDPEVKFNWYVDGVEVHNAKTKPREEQYNSTYRVVSVLTVLHQDWLNGKEYKCKVSNKALPAPIEKTISKAKGQPREPQVCTLPPSRDELTKNQVSLSCAVKGFYPSDIAVEWESNGQPENNYKTTPPVLDSDGSFFLVSKLTVDKSRWQQGNVFSCSVMHEALHNHYTQKSLSLSPG
heavy 2: not shown
B8: VHH285 (VHH)
VHH: QVQLVESGGGLVQAGGSLRLSCAASGRTFSKHAMGWFRQAPGKEREFVAAIDWSGGSTYYADSVKGRFTISRDNAKNTVYLQMDSLKPEDTAVYYCAADSYTDYAQLWLPELESEYDYWGQGTQVTVSS
notes: also called VHH285_alpha

Legend:
human IL-18Rβ = target: T1, human IL-18Rβ (human, UniProt O95256 20-356, limits assumed); assay: SPR (Carterra LSA), antibody captured on anti-human IgG-Fc, monomeric antigen as analyte, 25 C
T1 construct: Monomeric antigen injected in SPR; also called IL-18R beta; IL-18Rb
T1 sequence: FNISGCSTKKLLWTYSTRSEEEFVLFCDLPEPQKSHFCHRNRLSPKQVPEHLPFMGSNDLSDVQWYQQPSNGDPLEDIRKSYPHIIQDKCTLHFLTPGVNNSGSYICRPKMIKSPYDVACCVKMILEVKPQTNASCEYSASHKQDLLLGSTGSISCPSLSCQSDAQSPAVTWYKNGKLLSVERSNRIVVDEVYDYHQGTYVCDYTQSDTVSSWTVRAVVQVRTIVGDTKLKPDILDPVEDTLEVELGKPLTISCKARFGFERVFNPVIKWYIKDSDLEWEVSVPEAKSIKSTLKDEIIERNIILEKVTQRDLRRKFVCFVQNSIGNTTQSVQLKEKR
Procedure: (§1) SPR experiments were performed using Carterra LSA equipped with an HC30M chip (Carterra-Bio). Binding assays were carried out at 25° C. with HBSTE (10 mM HEPES ph7.4, 150 mM NaCl, 3 mM EDTA, 0.05% Tween-20) with 0.5 g/L BSA. A density of anti-human IgG-Fc capture lawn was established on an HC30M chip using amine coupling. […] Coupling of goat anti-human IgG (H+L) multi-species SP ads-UNLB (Southern Biotech, 2087-01) with standard immobilization was done for 15 minutes in 10 mM sodium acetate pH 4.5 and quenched using 1M ethanolamine HCl PH8.5. The anti-human IgG-Fc capture surface was then used to capture a panel of antibodies at 20 μg/mL. Monomeric antigen for human IL-18Rα, human IL-18Rβ, cynomolgus IL-18Rα, or rhesus IL-18Rβ targeted by the antibodies was injected over the captured antibody array at 6 concentrations in 4-fold dilution series starting at 500 nM. Binding data was referenced and blanked from a buffer injected, then globally fit to a 1:1 Langmuir binding model for estimation of ka, kd, and KD using Carterra Kinetics Software.

[1] = target: T2, IL-18 receptor (IL-18Rα/IL-18Rβ) overexpressed on HEK-Blue IL-18 cells (Homo sapiens (Human), UniProt Q13478 19-541; O95256 20-599); assay: cell-based or functional assay
T2 sequence 1: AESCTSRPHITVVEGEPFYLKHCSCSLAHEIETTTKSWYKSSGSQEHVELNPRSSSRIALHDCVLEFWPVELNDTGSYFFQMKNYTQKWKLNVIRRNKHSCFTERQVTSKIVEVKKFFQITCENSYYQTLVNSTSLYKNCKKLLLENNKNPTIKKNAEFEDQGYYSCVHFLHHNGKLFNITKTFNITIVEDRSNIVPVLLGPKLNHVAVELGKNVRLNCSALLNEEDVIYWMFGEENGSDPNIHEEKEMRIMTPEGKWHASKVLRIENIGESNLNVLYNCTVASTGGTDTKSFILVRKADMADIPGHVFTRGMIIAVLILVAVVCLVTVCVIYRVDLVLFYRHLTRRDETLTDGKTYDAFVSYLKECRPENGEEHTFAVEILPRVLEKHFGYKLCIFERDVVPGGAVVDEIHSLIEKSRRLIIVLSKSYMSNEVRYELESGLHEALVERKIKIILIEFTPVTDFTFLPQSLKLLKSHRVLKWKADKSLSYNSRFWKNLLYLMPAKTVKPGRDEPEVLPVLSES
T2 sequence 2: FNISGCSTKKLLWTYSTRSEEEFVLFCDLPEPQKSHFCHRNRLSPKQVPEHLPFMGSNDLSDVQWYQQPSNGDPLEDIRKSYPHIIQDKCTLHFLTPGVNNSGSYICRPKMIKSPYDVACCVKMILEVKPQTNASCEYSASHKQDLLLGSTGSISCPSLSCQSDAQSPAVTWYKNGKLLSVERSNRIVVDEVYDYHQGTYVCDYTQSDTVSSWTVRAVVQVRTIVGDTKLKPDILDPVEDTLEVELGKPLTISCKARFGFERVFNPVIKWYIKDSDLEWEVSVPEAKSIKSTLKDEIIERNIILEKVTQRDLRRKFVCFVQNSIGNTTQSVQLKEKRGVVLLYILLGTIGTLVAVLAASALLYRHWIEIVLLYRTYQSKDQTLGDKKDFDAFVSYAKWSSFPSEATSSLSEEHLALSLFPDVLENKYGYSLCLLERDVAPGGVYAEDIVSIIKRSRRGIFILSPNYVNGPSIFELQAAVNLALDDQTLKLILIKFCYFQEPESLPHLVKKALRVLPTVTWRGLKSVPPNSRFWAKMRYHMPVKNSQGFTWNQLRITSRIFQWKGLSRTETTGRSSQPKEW

[2] = target: T2, IL-18 receptor (IL-18Rα/IL-18Rβ) …; assay: cell-based or functional assay; remark: listed apart in the source
cynomolgus IL-18Rα = target: T3, cynomolgus IL-18Rα (cynomolgus, UniProt A0A2K5V3J9 19-328); assay: SPR (Carterra LSA), antibody captured on anti-human IgG-Fc, monomeric antigen as analyte, 25 C
T3 construct: also called Cyno IL-18Rα; non-human primate IL-18Rα
T3 sequence: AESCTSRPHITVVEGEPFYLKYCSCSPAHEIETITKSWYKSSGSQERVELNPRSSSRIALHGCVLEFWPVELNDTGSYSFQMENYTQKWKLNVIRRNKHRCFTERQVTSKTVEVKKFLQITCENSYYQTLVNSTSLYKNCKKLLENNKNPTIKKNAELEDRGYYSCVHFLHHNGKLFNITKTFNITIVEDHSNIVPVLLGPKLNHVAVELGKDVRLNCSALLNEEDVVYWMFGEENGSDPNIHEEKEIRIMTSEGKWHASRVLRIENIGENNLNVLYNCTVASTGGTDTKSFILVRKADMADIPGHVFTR
Procedure: as §1

human IL-18Rα = target: T4, human IL-18Rα (human, UniProt Q13478 19-329, limits assumed); assay: as above
T4 construct: Monomeric antigen injected in SPR; also called huIL18Ra; IL-18R alpha
T4 sequence: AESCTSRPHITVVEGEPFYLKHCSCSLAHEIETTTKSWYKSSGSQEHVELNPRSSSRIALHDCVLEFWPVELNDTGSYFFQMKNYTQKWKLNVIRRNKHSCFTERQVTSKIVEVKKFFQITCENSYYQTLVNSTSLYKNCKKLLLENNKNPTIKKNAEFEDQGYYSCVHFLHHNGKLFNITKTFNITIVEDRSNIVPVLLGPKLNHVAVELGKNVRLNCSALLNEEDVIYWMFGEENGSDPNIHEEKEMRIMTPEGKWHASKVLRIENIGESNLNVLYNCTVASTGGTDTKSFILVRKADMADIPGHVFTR
Procedure: as §1

Row | Binder | HEK-Blue IL-18: Abs 405 [1] [Abs] | HEK-Blue IL-18: Fold over Background [1] [fold] | further results
1 | B1 |  |  | Kd (human IL-18Rβ): 1.6 nM
2 | B2 | 1.1 | 9.1 | 
3 | B3 |  |  | HEK-Blue IL-18: Emax (Abs at 630 nm) at 10^8 (average of two replicates) [2]: 0.28 Abs at 630 nm
4 | B4 | 1.14 | 9.5 | 
5 | B5 | 1.02 | 8.5 | 
6 | B6 |  |  | Kd (cynomolgus IL-18Rα): 95 nM; Kd (human IL-18Rα): 34 nM
7 | B7 | 0.59 | 4.9 | 
8 | B8 |  |  | Kd (cynomolgus IL-18Rα): 14 nM; Kd (human IL-18Rα): 15 nM
